± gives the uncertainty stated by the source.
Experiment: self-splicing fitness, log relative to wild type (ln ratio); higher = more splicing; Tetrahymena group I intron in knt gene, E. coli kanamycin selection, DiMSum; sequences stand for … in CUCUCU…GGAGGGAAAAGUUAUCAGGCAUGCACCUGGUAGCUAGUCUUUAAACCAAUAGAUUGCAUCGGUUUAAAAGGCAAGACCGUCAAAUUGCGGGAAAGGGGUCAACAGCCGUUCAGUACCAAGUCUCAGGGGAAACUUUGAGAUGGCCUUGCAAAGGGUAUGGUAAUAAGCUGACGGACAUGGUCCUAACCACGCAGCCAAGUCCUAAGUCAACAGAUCUUCUGUUGAUAUGGAUGCAGUUCACAGACUAAAUGUCGGUCGGGGAAGAUGUAUUCUUCUCAUAAGAUAUAGUCGGACCUCUCCUUAAUGGGAGCUAGCGGAUGAAGUGAUGCAACACUGGAGCCGCUGGGAACUAAUUUGUAUGCGAAAGUAUAUUGAUUAGUUUUGGAGUACUCGUGGUCG
Procedure, shortened: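 A randomised library covering all eight P1ex-region intron nucleotides was built with the intron in the knt kanamycin-resistance gene on pET-22b(+) and held in E. coli BL21(DE3). Cells were grown overnight at 37°C or 30°C on LB agar, with or without 25 μg/mL kanamycin, plus 100 μg/mL carbenicillin, 50 μM IPTG and 0.2% rhamnose, and pooled colonies were amplicon-sequenced on an Illumina HiSeq 2500. DiMSum fitness is the error-weighted combination of wild-type-normalised replicate fold changes, kanamycin versus none.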

Sequence	self-splicing fitness (ln) (30 °C)	self-splicing fitness (ln) (37 °C)
AAGAAGCAAUAUUACGAGAC	-4.15 ± 0.29	-2.85 ± 0.25
AAGAAGCAAUAUUACGAGCU	-0.998 ± 0.087	-1.22 ± 0.11
AAGAAGCAAUAUUACGAGGC	-3.86 ± 0.42	-2.48 ± 0.33
AAGAAGCAAUAUUACGAUUU	-0.181 ± 0.065	0.764 ± 0.1
AAGAAGCAAUAUUACGCAAU	-2.08 ± 0.18	-1.52 ± 0.2
AAGAAGCAAUAUUACGCCGC	-2.91 ± 0.25	-2.63 ± 0.26
AAGAAGCAAUAUUACGCCGU	-1.1 ± 0.13	-0.777 ± 0.15
AAGAAGCAAUAUUACGCGAA	-2.18 ± 0.1	-0.344 ± 0.093
AAGAAGCAAUAUUACGCGCU	-0.931 ± 0.11	0.0502 ± 0.12
AAGAAGCAAUAUUACGCGGA	-2.71 ± 0.16	-0.37 ± 0.12
AAGAAGCAAUAUUACGCUGU	-2.63 ± 0.13	-1.28 ± 0.12
AAGAAGCAAUAUUACGCUUC	-3 ± 0.26	–
AAGAAGCAAUAUUACGGACU	0.093 ± 0.073	-0.443 ± 0.083
AAGAAGCAAUAUUACGGGAC	-2.85 ± 0.18	-2.63 ± 0.44
AAGAAGCAAUAUUACGGUGA	-1.11 ± 0.078	-0.329 ± 0.092
AAGAAGCAAUAUUACGUAGC	-3.08 ± 0.25	-2.32 ± 0.31
AAGAAGCAAUAUUACGUAUA	-2.18 ± 0.14	-1.17 ± 0.15
AAGAAGCAAUAUUACGUCUU	-2.83 ± 0.15	-1.63 ± 0.14
AAGAAGCAAUAUUACGUGAA	-2.16 ± 0.1	-0.97 ± 0.091

Sequence	self-splicing fitness (ln) (30 °C)	self-splicing fitness (ln) (37 °C)
AAGAAGCAAUAUUACGUGAC	-3.34 ± 0.15	-1.67 ± 0.11
AAGAAGCAAUAUUACGUUAU	-3.52 ± 0.14	-1.88 ± 0.15
AAGAAGCAAUAUUACGUUCC	-1.29 ± 0.14	0.0973 ± 0.19
AAGAAGCAAUAUUACGUUGG	-3.25 ± 0.18	-2.71 ± 0.23
AAGCAGCAAUAUUACGAAUA	-2.44 ± 0.16	-1.21 ± 0.12
AAGCAGCAAUAUUACGAAUC	-2.44 ± 0.16	-2.12 ± 0.2
AAGCAGCAAUAUUACGACAA	-1.06 ± 0.075	-0.277 ± 0.072
AAGCAGCAAUAUUACGACAU	-0.341 ± 0.011	-0.0663 ± 0.032
AAGCAGCAAUAUUACGACCG	-1.19 ± 0.099	-0.552 ± 0.15
AAGCAGCAAUAUUACGAGAA	–	-1.29 ± 0.33
AAGCAGCAAUAUUACGAGUC	-4.83 ± 0.32	-1.87 ± 0.18
AAGCAGCAAUAUUACGAGUU	-1.95 ± 0.077	-1.07 ± 0.086
AAGCAGCAAUAUUACGAUAG	-3.63 ± 0.2	-1.45 ± 0.15
AAGCAGCAAUAUUACGCAGA	-2.16 ± 0.11	-0.306 ± 0.091
AAGCAGCAAUAUUACGCAUG	-2.97 ± 0.2	-2.27 ± 0.2
AAGCAGCAAUAUUACGCGUC	-3.03 ± 0.16	-1.7 ± 0.15
AAGCAGCAAUAUUACGGCAG	-1.31 ± 0.065	-0.525 ± 0.087
AAGCAGCAAUAUUACGGCGG	-1.13 ± 0.12	-1.01 ± 0.14
AAGCAGCAAUAUUACGGGGC	-3.15 ± 0.23	-2.54 ± 0.24

Source: the supplement of paper PMC7877785
